In assay [1] the target is LbXyn43B/Thr274Ala (Levilactobacillus brevis DSM 1269). The experiment in a line: SEC; Sephacryl S-300 (110 mL), 0.1 mL/min, 50 mM sodium phosphate, 150 mM NaCl, pH 7.0; calibrated with molecular weight standards of 20-700 kDa; apparent molecular mass.
For assay [2] the target is unchanged. The experiment in a line: SEC-MALS; OMNISEC multi-detection SEC: Superdex 200 Increase 10/300 GL, light scattering (RALS 90°, LALS 7°), refractive index, viscometer, UV/VIS; 50 µL of 4.5 mg/mL injected in triplicate; 50 mM sodium phosphate, pH 7, 150 mM NaCl; 0.5 mL/min.
Assay [3] has as its target β-D-xylosidase LbXyn43B from Levilactobacillus brevis DSM1269 (Levilactobacillus brevis DSM 1269). The experiment in a line: crystal structure; X-ray, 1.9 Å, space group P 1 21 1, four chains (A-D); crystals from 27-29% PEG 1500, 60-140 mM malonate-imidazole-borate buffer, pH 4.0-4.5, 4°C.
The target is the same in assay [4]. The experiment in a line: SEC; Sephacryl S-300 (110 mL), 0.1 mL/min, 50 mM sodium phosphate, 150 mM NaCl, pH 7.0; calibrated with molecular weight standards of 20-700 kDa; apparent molecular mass.
Assay [5] has the same target. The experiment in a line: SEC-MALS; OMNISEC multi-detection SEC: Superdex 200 Increase 10/300 GL, light scattering (RALS 90°, LALS 7°), refractive index, viscometer, UV/VIS; 50 µL of 4.5 mg/mL injected in triplicate; 50 mM sodium phosphate, pH 7, 150 mM NaCl; 0.5 mL/min.

On to LbXyn43B/Thr274Ala (enzyme), for which the stoichiometry N in assay [1] turned out to be 3. Besides, in assay [2], the fraction of sample in peak 1 (tetramer) was determined as 91.3% and the stoichiometry N was determined as 4.

Turning to “β-D-xylosidase LbXyn43B from Levilactobacillus brevis DSM1269 (enzyme)”, the stoichiometry N in assay [3], in assay [4] and in assay [5] was 4 in each case. The same substance came in with a fraction of sample in peak 1 (tetramer) in assay [5] of 84.9%.
